In this series the test system is CsrA-H6 (Escherichia coli (stated identical to S. Typhimurium CsrA)). The series can be described thus: EMSA. (In general: Mobility shift assays separate free from complexed probe on a gel.)

In the case of hilE leader RNA (+153 to +280), the Kd is 37 nM.

As a reminder, the Kd is the concentration at which binding is half-saturated. Read a low Kd as a tighter complex.

(Values after PMC8192010.)
